Results from patent publication US20090082410A1.

Biological target: angiotensin II type 1A receptor
Test: cell-based or functional assay

arrestinGFP translocation response (Fgrains, INCell Analyzer), U2OS cells, 1:4 dilution of GRK2-C20 baculovirus, no ligand: 305 Fgrains
arrestinGFP translocation response (Fgrains, INCell Analyzer), U2OS cells, 1:256 dilution of GRK2-C20 baculovirus, no ligand: 77 Fgrains
arrestinGFP translocation response (Fgrains, INCell Analyzer), U2OS cells, no added GRK2-C20, no ligand: 18 Fgrains
Substance: arrestin-GFP
